Assay results: the supplement of paper PMC10567573

B1: FAM189A2 (parent)
chain: GSEAAVIPLDLGCTQVTQDGDIPN
B2: TOR1AIP2 (parent)
chain: SPGHSSAGQEGEDTLRRRLLAPEA

Variants of: B1
Assay: protein stability index of a GFP-peptide fusion (GPS, HEK-293T) (PSI 1-6); higher = more stable
Conditions: c terminus: a fixed tail appended
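Further: lentivirally expressed fusions sorted by FACS into six bins by GFP to DsRed ratio, PSI derived from sequencing read proportions per bin multiplied by bin number.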

Protein stability index: each site, then its substitutions
P8: K 5 | C 4.03 | R 4.53 | V 2.54 | D 4.97
L9: R 5.22 | C 5.5 | K 5.46 | F 4.92 | I 5.15
E3: H 4.49 | L 4.54 | W 2.96 | Q 5.3 | I 3.58
C13: P 5.67 | F 5.04 | Y 5.3 | D 5.46 | W 4.36 | Q 5.71
Q18: E 5.38 | P 5.18 | R 5.09 | V 4.92 | I 4.62
P23: M 5.22 | G 5.44 | D 5.81 | K 5.17 | H 4.85 | S 5.3
T17: K 5.4 | C 5.19 | P 5.44 | E 5.68
D19: K 5.19 | N 4.8 | G 5.24 | F 4.46 | L 4.78 | T 5.25
L11: I 5.11 | S 5.54 | A 5.54 | Q 5.33 | E 5.02 | K 5.6
G12: M 4.82 | E 4.86 | H 4.87 | I 4.96
V6: D 5.63 | E 5.65
A5: Q 5.1 | H 5.2 | S 5.51
Q15: C 5.31 | N 5.75 | T 5.24 | P 5.33 | W 4.11
D10: A 5.39 | N 5.14 | E 5.18 | V 4.48 | K 4.85
N24: V 5.17 | Q 5.3
S2: W 3.93 | A 5.71 | D 5.51 | L 4.77 | C 5.49 | H 5.25 | Q 5.36
I7: V 5.23 | R 4.98 | Q 5.24
T14: A 5.29 | F 3.97 | W 4.16 | G 5.17
G1: S 5.22 | C 4.75 | I 4.68 | K 5.25
V16: T 5.53 | S 4.88 | H 5.22 | I 5.26
I22: G 5.26 | K 5.65 | Q 5.31 | A 5.72
D21: L 4.52 | S 4.97 | G 5.27
A4: Q 5.36 | D 5.61 | R 5.4

Variants of: B2
Assay: as above
Conditions: c terminus: a fixed tail appended

Protein stability index of substitutions, site by site:
S1: A 5.07 | C 3.46 | D 5.21 | E 5.47 | F 2.59 | G 3.81 | H 4.57 | I 4.92 | K 4.47 | L 4.91 | M 4.49 | N 3.13 | P 5.3 | Q 4.02 | R 4.05 | T 4.88 | V 4.59 | W 4.53 | Y 2.21
P2: A 2.22 | C 2.03 | D 4.86 | E 4.43 | F 2.53 | G 4.22 | H 4.2 | I 2.5 | K 4.44 | L 2.43 | M 3.75 | N 4.42 | Q 4.47 | R 4.47 | S 3.93 | T 3.23 | V 2.75 | W 2.65 | Y 2.24
G3: A 3.74 | C 3.32 | D 4.73 | E 4.65 | F 3.85 | H 4.21 | I 3.51 | K 3.67 | L 3.78 | M 4.48 | N 4.16 | P 4.69 | Q 4.46 | R 2.93 | S 4.02 | T 3.59 | V 3.24 | W 4.3 | Y 3.83
H4: A 4.22 | C 3.71 | D 4.89 | E 4.15 | F 4.3 | G 4.08 | I 3.92 | K 3.52 | L 3.85 | M 3.38 | N 4.13 | P 4.49 | Q 3.82 | R 3.76 | S 4.39 | T 4.14 | V 3.81 | W 3.98 | Y 3.84
S5: A 3.84 | C 3.37 | D 4.75 | E 4.64 | F 4 | G 4.11 | H 4.35 | I 3.78 | K 3.86 | L 3.9 | M 4.49 | N 4.42 | P 4.14 | Q 4.64 | R 4 | T 4.46 | V 4.3 | W 4.63 | Y 4.09
S6: A 4.36 | C 3.9 | D 4.48 | E 4.51 | F 2.94 | G 3.66 | H 4.23 | I 3.42 | K 3.97 | L 4.18 | M 4.02 | N 3.75 | P 4.26 | Q 4.65 | R 4.46 | T 4.36 | V 3.24 | W 3.97 | Y 3.73
A7: C 3.45 | D 4.56 | E 4.47 | F 4.16 | G 4.21 | H 3.77 | I 3.92 | K 3.66 | L 3.73 | M 3.79 | N 3.76 | P 3.42 | Q 4.24 | R 3.82 | S 4.01 | T 4.18 | V 4.25 | W 3.89 | Y 3.9
G8: A 4.24 | C 4.46 | D 4.51 | E 4.5 | F 3.34 | H 4.69 | I 4.53 | K 4.19 | L 4.21 | M 4.05 | N 4.05 | P 4.53 | Q 4.33 | R 4 | S 4.42 | T 4.61 | V 4.43 | W 4.19 | Y 3.79
Q9: A 4.35 | C 3.22 | D 3.84 | E 4.31 | F 4.11 | G 2.94 | H 3.83 | I 4.08 | K 4.02 | L 3.58 | M 3.43 | N 4.05 | P 4.53 | R 3.5 | S 4.24 | T 3.96 | V 3.98 | W 3.04 | Y 3.68
E10: A 3.75 | C 2.67 | D 3.94 | F 3.68 | G 3.91 | H 3.61 | I 3.63 | K 3.27 | L 3.31 | M 3.58 | N 3.72 | P 3.94 | Q 3.88 | R 3.62 | S 4.06 | T 3.81 | V 4.04 | W 3.42 | Y 3.51
G11: A 4 | C 3.88 | D 4.64 | E 4.6 | F 3.49 | H 4.07 | I 3.82 | K 4.5 | L 4.13 | M 4.15 | N 4.46 | P 4.05 | Q 4.38 | R 4.64 | S 4.48 | T 4.62 | V 4.04 | W 3.6 | Y 3.39
E12: A 3.48 | C 4 | D 3.97 | F 3.1 | G 3.73 | H 3.73 | I 3.73 | K 3.98 | L 3.33 | M 3.53 | N 3.81 | P 3.59 | Q 3.38 | R 3.84 | S 3.3 | T 3.6 | V 3.22 | W 3.19 | Y 3.22
D13: A 3.19 | C 4.05 | E 4.73 | F 3.02 | G 4.1
